Experimental data reported in publication PMC7423924, “A fluorogenic cyclic peptide for imaging and quantification of drug-induced apoptosis” (Nature Communications, 2020).
Several values for one entry are separate records, joined by “and”; a condition that tells them apart may be missing. Equal entries are not always repeated.

Tested on: BL-2 cells (lymphoid)
Assay: Flow cytometry staining before and after induction of apoptosis, BL-2
Assay type: cell-based, human
Conditions: single replicates, listed as Ann V
Description: Fig. 2 Apo-15 binds to apoptotic cells of different origin in multiple environments. a Representative fluorescence confocal microscopy images (from three independent experiments) human apoptotic (yellow arrows) and viable (white arrows) cells from different lineages: BL-2 (lymphoid), neutrophils (myeloid), and primary airway epithelial cells (epithelial). Cells were incubated with Apo-15 (100 nM, green), AF647-Annexin V (5 nM, red), and Hoechst 33342 (7 μM, blue) for 10 min and imaged under a fluorescence confocal microscope (λexc.: 405, 488, 633 nm: λem.: 450, 525, 670 nm). Scale bars: 10 µm. b Divalent cation-independent binding of Apo-15 to apoptotic cells of different origin (top plots: lymphoid cells, bottom plots: myeloid cells). Mixtures of apoptotic (highlighted in green dots) and viable cells (highlighted in black dots) were stained with AF647-Annexin V (25 nM) and Apo-15 (100 nM) in the presence of 2 mM CaCl2 (left) or 2.5 mM EDTA (right). Representative histograms showing Apo-15 binding (x-axis) vs AF647-Annexin V binding (y-axis) acquired on 5L LSR flow cytometer (n = 5). c Cells were sorted on their Apo-15 positivity (green populations in panel b) or negativity (black populations in panel b). Gating strategy in Supplementary Fig. 7. Morphological analysis (four independent images from two independent experiments) of cytocentrifuge preparations of Apo-15-positive and Apo-15-negative cells under brightfield microscopy (scale bar: 10 µm). d Quantification of fluorescence staining of neutrophils (myeloid, n ≥ 5), BL-2 cells (lymphoid, n ≥ 3) and primary airway epithelial cells (epithelial, n = 5) before and after induction of apoptosis and upon treatment with Apo-15 and AF647-Annexin V. Data acquired on 5 L LSR flow cytometer and presented as mean values ± SEM. P values obtained from two-tailed t tests. Source data (in d) are provided as a Source data file. […]
All apopeptides were reconstituted at 5 mM in DMSO. […] Fluorescence emission was measured on a 5 L LSR flow cytometer (BD). […]

B1: Annexin V: fluorescently-labeled (AF647) annexin V, PS-binding protein (protein, UniProt P08758 2-320, looked up)
Annexin A5: AQVLRGTVTDFPGFDERADAETLRKAMKGLGTDEESILTLLTSRSNAQRQEISAAFKTLFGRDLLDDLKSELTGKFEKLIVALMKPSRLYDAYELKHALKGAGTNEKVLTEIIASRTPEELRAIKQVYEEEYGSSLEDDVVGDTSGYYQRMLVVLLQANRDPDAGIDEAQVEQDAQALFQAGELKWGTDEEKFITIFGTRSVSHLRKVFDKYMTISGFQIEETIDRETSGNLEQLLLAVVKSIRSIPAYLAETLYYAMKGAGTDDHTLIRVMVSRSEIDLFNIRKEFRKNFATSLYSMIKGDTSGDYKKALLLLCGEDD
modifications: AF647 label
- Stained cells (flow cytometry) (BL-2 0h UV): 25.4% and 28.9% and 10.3%
- Stained cells (flow cytometry) (BL-2 3h UV, EDTA): 1.4% and 1.1% and 2.6%
- Stained cells (flow cytometry) (BL-2 3h UV): 86.9% and 45.3% and 46.5% and 34.9%
